Experimental data published in patent US20120095193A1 (published 2012).

T1: human ADAMTS5 (human, UniProt Q9UNA0 262-622, limits assumed)
T1 construct: Octet and ELISA used 'recombinant human ADAMTS5'; also called recombinant human ADAMTS5; ADAMTS5 (R&D Systems 2198-AD)
T1 sequence: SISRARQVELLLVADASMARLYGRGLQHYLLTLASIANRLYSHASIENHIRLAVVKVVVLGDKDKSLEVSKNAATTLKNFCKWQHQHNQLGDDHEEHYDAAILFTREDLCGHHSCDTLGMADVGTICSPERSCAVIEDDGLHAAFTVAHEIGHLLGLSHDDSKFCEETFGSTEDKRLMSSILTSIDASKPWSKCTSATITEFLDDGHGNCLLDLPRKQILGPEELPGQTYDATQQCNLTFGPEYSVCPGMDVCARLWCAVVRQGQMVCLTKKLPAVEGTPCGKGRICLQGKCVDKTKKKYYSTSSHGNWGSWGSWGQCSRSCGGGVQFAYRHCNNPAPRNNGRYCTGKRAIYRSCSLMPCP


Assays:
human ADAMTS5 [1] = biological target: T1, human ADAMTS5; assay: Biacore, mAb down, no avidity
human ADAMTS5 [2] = biological target: T1, human ADAMTS5; assay: Octet QK, antigen down, incl avidity
human ADAMTS5 [3] = biological target: T1, human ADAMTS5; assay: Biacore, mAb down, no avidity; Biacore, mAb down, no avidity
human ADAMTS5 [4] = biological target: T1, human ADAMTS5; assay: Biacore, mAb from culture supernatant captured on anti-human IgG, ADAMTS5 (R&D 2198-AD) at 64 nM, 1:1 fit
human ADAMTS5 [5] = biological target: T1, human ADAMTS5; assay: Biacore T100, HEK-expressed mAb captured on Protein A, ADAMTS5 (R&D 2198-AD) 0.0625-64 nM, 1:1 fit
Protocol: (§1) Protein A was immobilized on a CM5 biosensor chip by primary amine coupling. This surface was used to capture the Fc disabled anti-ADAMTS5 antibody, 12F4 H4L0 IgG1m(AA) (BPC1661), (CHO and HEK expressed material). Recombinant human ADAMTS5 (R&D Systems 2198-AD) was used as the analyte at 64 nM, 16 nM, 4 nM, 1 nM, 0.25 nM and 0.0625 nM, with a buffer injection (i.e. 0 nM) used to double reference the binding curves. Regeneration of the capture surface (i.e. removal of the captured antibody) was with 50 mM NaOH. The running buffer was HBS-EP and the run was carried out on the Biacore T100 at 25° C. The data was fitted to the 1:1 model inherent to the machines analysis software.

human ADAMTS5 [6] = biological target: T1, human ADAMTS5; assay: Biacore T100, CHO-expressed mAb captured on Protein A, ADAMTS5 (R&D 2198-AD) 0.0625-64 nM, 1:1 fit
Protocol: as §1

Kd (human ADAMTS5 [1]) [nM]	Kd (human ADAMTS5 [2]) [nM]	kon (human ADAMTS5 [3]) [M⁻¹ s⁻¹]	Kd (human ADAMTS5 [4]) [nM]	koff (human ADAMTS5 [4]) [s⁻¹]	kon (human ADAMTS5 [4]) [M⁻¹ s⁻¹]	Kd (human ADAMTS5 [5]) [nM]	Kd (human ADAMTS5 [6]) [nM]	Binder
0.085	0.0383	489000	0.0848	4.15e-05	489000	–	–	BPC1659 (antibody, human IgG1, kappa, Humanized, human gamma 1 wild type / kappa, with a fully functional Fc; also called 12F4 H4L0; 12F4 H4L0 IgG1 wt) heavy: not shown light: DIQMTQSPSSLSASVGDRVTITCKASQSVGTTIVWYQQKPGKAPKLLIYSASNRHTGVPSRFSGSGSGTDFTLTISSLQPEDFATYYCQQYTSYPFTFGQGTKLEIKRTVAAPSVFIFPPSDEQLKSGTASVVCLLNNFYPREAKVQWKVDNALQSGNSQESVTEQDSKDSTYSLSSTLTLSKADYEKHKVYACEVTHQGLSSPVTKSFNRGEC
–	–	–	–	–	–	0.074	0.07	BPC1661 (antibody, human IgG1, kappa, HEK- and CHO-expressed material was tested; also called 12F4 H4L0 IgG1m(AA); Fc disabled anti-ADAMTS5 antibody) heavy: not shown light: DIQMTQSPSSLSASVGDRVTITCKASQSVGTTIVWYQQKPGKAPKLLIYSASNRHTGVPSRFSGSGSGTDFTLTISSLQPEDFATYYCQQYTSYPFTFGQGTKLEIKRTVAAPSVFIFPPSDEQLKSGTASVVCLLNNFYPREAKVQWKVDNALQSGNSQESVTEQDSKDSTYSLSSTLTLSKADYEKHKVYACEVTHQGLSSPVTKSFNRGEC
